Publication PMC5309860 (2017)

B1: His-β-arrestin-1-WT [not stated] / GST-PLCγ-SH3 [human] (parent complex)
chain 1: MGDKGTRVFKKASPNGKLTVYLGKRDFVDHIDLVDPVDGVVLVDPEYLKERRVYVTLTCAFRYGREDLDVLGLTFRKDLFVANVQSFPPAPEDKKPLTRLQERLIKKLGEHAYPFTFEIPPNLPCSVTLQPGPEDTGKACGVDYEVKAFCAENLEEKIHKRNSVRLVIRKVQYAPERPGPQPTAETTRQFLMSDKPLHLEASLDKEIYYHGEPISVNVHVTNNTNKTVKKIKISVRQYADICLFNTAQYKCPVAMEEADDTVAPSSTFCKVYTLTPFLANNREKRGLALDGKLKHEDTNLASSTLLREGANREILGIIVSYKVKVKLVVSRGGLLGDLASSDVAVELPFTLMHPKPKEEPPHREVPENETPVDTNLIELDTNDDDIVFEDFARQRLKGMKDDKEEEEDGTGSPQLNNR
chain 2: TFKCAVKALFDYKAQREDELTFIKSAIIQNVEKQEGGWWRGDYGGKKQLWFPSNYVEEMVN

Variants of: B1
Test: GST pull down assay (quantified western blot); 5 μM GST-PLCγ-SH3, 5 μM β-arrestin-1, with GRK6pp; parent: 2.5; read off a plot

Compared with chain 1 MGDKGTRVFKKASPNGKLTVYLGKRDFVDHIDLVDPVDGVVLVDPEYLKERRVYVTLTCAFRYGREDLDVLGLTFRKDLFVANVQSFAAAAEDKKPLTRLQERLIKKLGEHAYPFTFEIPPNLPCSVTLQPGPEDTGKACGVDYEVKAFCAENLEEKIHKRNSVRLVIRKVQYAPERPGPQPTAETTRQFLMSDKPLHLEASLDKEIYYHGEPISVNVHVTNNTNKTVKKIKISVRQYADICLFNTAQYKCPVAMEEADDTVAPSSTFCKVYTLTPFLANNREKRGLALDGKLKHEDTNLASSTLLREGANREILGIIVSYKVKVKLVVSRGGLLGDLASSDVAVELPFTLMHPKPKEEPPHREVPENETPVDTNLIELDTNDDDIVFEDFARQRLKGMKDDKEEEEDGTGSPQLNNR [chain 1 P88A, chain 1 P89A, chain 1 P91A], chain 1 MGDKGTRVFKKASPNGKLTVYLGKRDFVDHIDLVDPVDGVVLVDPEYLKERRVYVTLTCAFRYGREDLDVLGLTFRKDLFVANVQSFPPAPEDKKPLTRLQERLIKKLGEHAYPFTFEIPPNLPCSVTLQPGPEDTGKACGVDYEVKAFCAENLEEKIHKRNSVRLVIRKVQYAPERPGAQPTAETTRQFLMSDKPLHLEASLDKEIYYHGEPISVNVHVTNNTNKTVKKIKISVRQYADICLFNTAQYKCPVAMEEADDTVAPSSTFCKVYTLTPFLANNREKRGLALDGKLKHEDTNLASSTLLREGANREILGIIVSYKVKVKLVVSRGGLLGDLASSDVAVELPFTLMHPKPKEEPPHREVPENETPVDTNLIELDTNDDDIVFEDFARQRLKGMKDDKEEEEDGTGSPQLNNR [chain 1 P180A] is higher in screen value: ~1.1 fold for the first, ~2.6 fold for the second.

Variant chain 1 MGDKGTRVFKKASPNGKLTVYLGKRDFVDHIDLVDPVDGVVLVDPEYLKERRVYVTLTCAFRYGREDLDVLGLTFRKDLFVANVQSFPPAPEDKKPLTRLQERLIKKLGEHAYPFTFEIPANLPCSVTLQPGPEDTGKACGVDYEVKAFCAENLEEKIHKRNSVRLVIRKVQYAPERPGPQPTAETTRQFLMSDKPLHLEASLDKEIYYHGEPISVNVHVTNNTNKTVKKIKISVRQYADICLFNTAQYKCPVAMEEADDTVAPSSTFCKVYTLTPFLANNREKRGLALDGKLKHEDTNLASSTLLREGANREILGIIVSYKVKVKLVVSRGGLLGDLASSDVAVELPFTLMHPKPKEEPPHREVPENETPVDTNLIELDTNDDDIVFEDFARQRLKGMKDDKEEEEDGTGSPQLNNR [chain 1 P121A] has a screen value of ~2.7 fold.

Variants of: B1
Test: GST pull down assay (quantified western blot); 5 μM GST-PLCγ-SH3, 5 μM β-arrestin-1, without GRK6pp; parent: 1; read off a plot

Compared with chain 1 MGDKGTRVFKKASPNGKLTVYLGKRDFVDHIDLVDPVDGVVLVDPEYLKERRVYVTLTCAFRYGREDLDVLGLTFRKDLFVANVQSFAAAAEDKKPLTRLQERLIKKLGEHAYPFTFEIPPNLPCSVTLQPGPEDTGKACGVDYEVKAFCAENLEEKIHKRNSVRLVIRKVQYAPERPGPQPTAETTRQFLMSDKPLHLEASLDKEIYYHGEPISVNVHVTNNTNKTVKKIKISVRQYADICLFNTAQYKCPVAMEEADDTVAPSSTFCKVYTLTPFLANNREKRGLALDGKLKHEDTNLASSTLLREGANREILGIIVSYKVKVKLVVSRGGLLGDLASSDVAVELPFTLMHPKPKEEPPHREVPENETPVDTNLIELDTNDDDIVFEDFARQRLKGMKDDKEEEEDGTGSPQLNNR [chain 1 P88A, chain 1 P89A, chain 1 P91A], chain 1 MGDKGTRVFKKASPNGKLTVYLGKRDFVDHIDLVDPVDGVVLVDPEYLKERRVYVTLTCAFRYGREDLDVLGLTFRKDLFVANVQSFPPAPEDKKPLTRLQERLIKKLGEHAYPFTFEIPPNLPCSVTLQPGPEDTGKACGVDYEVKAFCAENLEEKIHKRNSVRLVIRKVQYAPERPGAQPTAETTRQFLMSDKPLHLEASLDKEIYYHGEPISVNVHVTNNTNKTVKKIKISVRQYADICLFNTAQYKCPVAMEEADDTVAPSSTFCKVYTLTPFLANNREKRGLALDGKLKHEDTNLASSTLLREGANREILGIIVSYKVKVKLVVSRGGLLGDLASSDVAVELPFTLMHPKPKEEPPHREVPENETPVDTNLIELDTNDDDIVFEDFARQRLKGMKDDKEEEEDGTGSPQLNNR [chain 1 P180A] is higher in screen value: ~1.1 fold for the first, ~1.2 fold for the second.

With chain 1 MGDKGTRVFKKASPNGKLTVYLGKRDFVDHIDLVDPVDGVVLVDPEYLKERRVYVTLTCAFRYGREDLDVLGLTFRKDLFVANVQSFPPAPEDKKPLTRLQERLIKKLGEHAYPFTFEIPANLPCSVTLQPGPEDTGKACGVDYEVKAFCAENLEEKIHKRNSVRLVIRKVQYAPERPGPQPTAETTRQFLMSDKPLHLEASLDKEIYYHGEPISVNVHVTNNTNKTVKKIKISVRQYADICLFNTAQYKCPVAMEEADDTVAPSSTFCKVYTLTPFLANNREKRGLALDGKLKHEDTNLASSTLLREGANREILGIIVSYKVKVKLVVSRGGLLGDLASSDVAVELPFTLMHPKPKEEPPHREVPENETPVDTNLIELDTNDDDIVFEDFARQRLKGMKDDKEEEEDGTGSPQLNNR [chain 1 P121A] the screen value was ~1.1 fold.
